The data set deals with the molecule itself. Kind of data set: TEM, negative stain, TES buffer pH 7, 24 h at 37 C; non-specific self-association (no fibrils). How it is done:
FIG. 5A and FIG. 5B are TEM images of the non-specific aggregates of Col108r. The fibril formation was initiated by transferring Col108r in 5 mM Acetic Acid (pH 4.5) to TES buffer (pH 7) and incubated for 24 hr at 37° C. The grids were stained with 1% sodium phosphotungstate; magnification factor 10,000; the scale bar is 200 nm. The two images were taken for two different preparations under identical treatments.

B1: peptide Col108r (Col-domain, randomized Col-domain and reversed Col-domain units) (peptide)
chain: GPCCGPPGPPGPPGPPGERGPPGPQGARGLPGAPGQMGPRGLPGERGRPGAPGPAGARGEPGAPGSKGDTGAKGEPGPVGVQGPPGPAGEEGKRGARGEPGPTGPAGPKGSPGEAGRPGEAGLPGPPGPPGPPGPPGMQGLPGPRGAPGRAGPEGRAGRPGPAGLPGEQGRAGRPGPPGAEGAEGKPGAPGSPGPRGLPGPAGDTGPEGQVGARGPKGEPGTPGRAGEPGEPGVPGKAGPKGESGPPGPPGPPGPPGREGPPGQPGRAGPLGPAGMQGRPGPLGREGPRGPAGAPGRAGPEGPAGKSGTDGKAGPEGVPGQVGPPGAPGEEGRKGRAGPEGTPGAPGKPGPSGAEGPRGAEGPLGPPGPPGPPGPPGPCCGYIPEAPRDGQAYVRKDGEWVLLSTFL
notes: Forms a collagen triple helix (trimer) with Cys-knots and foldon
Take B1: the binding result is reported as “binds”.

The record behind these values is patent publication US20200123231A1 (RESEARCH FOUNDATION OF THE CITY UNIVERSITY OF NEW YORK, published 2020).
